Consider 3 proteins from paper doi:10.1101/2021.07.15.452591 (bioRxiv, 2021).

Changes are numbered by the printed parent chain. Names may count otherwise.

The series “crystal structure” concerns the molecule itself. Put plainly: crystal structure.
The series “SEC” concerns the molecule itself. In words: SEC.
The series “dynamic light scattering” concerns the molecule itself. In words: dynamic light scattering.

B1: 2-aminomuconic 6-semialdehyde dehydrogenase (AmnC), wild type (enzyme, Pseudomonas sp. AP-3, UniProt Q9KWS5 1-491, looked up)
chain: MKQYRNFVDGKWVESSKTFQDVTPIDGSVVAVVHEADRDLVDAAVKAGHRALEGEWGRTTAAQRVDWLRRIANEMERRQQDFLDAEMADTGKPLSMAATIDIPRGIANFRNFADILATAPVDSHRLDLPDGAYALNYAARKPLGVVGVISPWNLPLLLLTWKVAPALACGNAVVVKPSEDTPGTATLLAEVMEAVGIPPGVFNLVHGFGPNSAGEFISQHPDISAITFTGESKTGSTIMRAAAEGVKPVSFELGGKNAAVIFADCDFEKMLDGMMRALFLNSGQVCLCSERVYVERPIFDRFCVALAERIKALKVDWPHETDTQMGPLISSKHRDKVLSYFELARQEGATFLAGGGVPRFGDERDNGAWVEPTVIAGLSDDARVVREEIFGPICHVTPFDSESEVIRRANDTRYGLAATIWTTNLSRAHRVSELMRVGISWVNTWFLRDLRTPFGGAGLSGIGREGGMHSLNFYSELTNVCVRIDKESPDV
For B1, the “stoichiometry N” value in “crystal structure” worked out at 4.

B2: AmnC ΔOD2 (S123G, H124G, L425A) (enzyme, Pseudomonas sp. AP-3, UniProt Q9KWS5 1-491, looked up)
chain: B1 chain with S123G, H124G, L425A
Regarding B2, the “stoichiometry N” value in “SEC” is approximately 2; in the series “dynamic light scattering” it was 2.

B3: AmnC ΔOD1 (Δ124-138 and Δ477-491) (enzyme, Pseudomonas sp. AP-3, UniProt Q9KWS5 1-476, looked up)
chain: MKQYRNFVDGKWVESSKTFQDVTPIDGSVVAVVHEADRDLVDAAVKAGHRALEGEWGRTTAAQRVDWLRRIANEMERRQQDFLDAEMADTGKPLSMAATIDIPRGIANFRNFADILATAPVDSARKPLGVVGVISPWNLPLLLLTWKVAPALACGNAVVVKPSEDTPGTATLLAEVMEAVGIPPGVFNLVHGFGPNSAGEFISQHPDISAITFTGESKTGSTIMRAAAEGVKPVSFELGGKNAAVIFADCDFEKMLDGMMRALFLNSGQVCLCSERVYVERPIFDRFCVALAERIKALKVDWPHETDTQMGPLISSKHRDKVLSYFELARQEGATFLAGGGVPRFGDERDNGAWVEPTVIAGLSDDARVVREEIFGPICHVTPFDSESEVIRRANDTRYGLAATIWTTNLSRAHRVSELMRVGISWVNTWFLRDLRTPFGGAGLSGIGREGGMHSLNFYSE
As to B3, the “stoichiometry N” value in the series “SEC” is approximately 2; in the series “dynamic light scattering” it was 2.
